Results published in PMC11969024 (2025).

B1: peptide HD2 (from tick evasin EVA4) / CCL17 (biotinylated, synthetic) (parent complex)
chain 1: EEDDYTAYAPLTCYFT
chain 2: ARGTNVGRECCLEYFKGAIPLRKLKTWYQTSEDCSRDAIVFVTVQGRAICSDPNNKRVKNAVKYLQSLERS
B2: peptide HD2 (from tick evasin EVA4) / CCL8 (biotinylated, synthetic) (parent complex)
chain 1: EEDDYTAYAPLTCYFT
chain 2: QPDSVSIPITCCFNVINRKIPIQRLESYTRITNIQCPKEAVIFKTKRGKEVCADPKERWVRDSMKHLDQIFQNLKP

Variants of: B1

Row | Variant | enrichment
1 | chain 1 F15R | 0.0833 log2 (difference from the parental peptide)
2 | chain 1 T6P | -4.51 log2 (difference from the parental peptide)
3 | chain 1 E2K | -0.857 log2 (difference from the parental peptide)

Variants of: B2

Row | Variant | enrichment
4 | chain 1 D4V | -3.88 log2 (difference from the parental peptide)
5 | chain 1 D4L | -3.87 log2 (difference from the parental peptide)
6 | chain 1 D4C | -7.17 log2 (difference from the parental peptide)
7 | chain 1 D4S | -2.5 log2 (difference from the parental peptide)
8 | chain 1 D4F | -4.31 log2 (difference from the parental peptide)
9 | chain 1 D4P | -4.27 log2 (difference from the parental peptide)
10 | chain 1 D4T | -2.87 log2 (difference from the parental peptide)
11 | chain 1 D4G | -2.42 log2 (difference from the parental peptide)
12 | chain 1 D4K | -6.39 log2 (difference from the parental peptide)
13 | chain 1 D4R | -6.61 log2 (difference from the parental peptide)
14 | chain 1 D4N | -2.35 log2 (difference from the parental peptide)
15 | chain 1 D4A | -3.07 log2 (difference from the parental peptide)
16 | chain 1 D4H | -4.48 log2 (difference from the parental peptide)
17 | chain 1 D4E | -0.292 log2 (difference from the parental peptide)
18 | chain 1 Y14V | 1.05 log2 (difference from the parental peptide)
19 | chain 1 Y14D | -0.707 log2 (difference from the parental peptide)
20 | chain 1 Y14T | 1.09 log2 (difference from the parental peptide)
21 | chain 1 Y14R | -0.632 log2 (difference from the parental peptide)
22 | chain 1 Y14K | -1.21 log2 (difference from the parental peptide)
23 | chain 1 Y14H | 1.41 log2 (difference from the parental peptide)
24 | chain 1 Y14G | -2.18 log2 (difference from the parental peptide)
25 | chain 1 Y14S | -0.238 log2 (difference from the parental peptide)
26 | chain 1 Y14F | 0.904 log2 (difference from the parental peptide)
27 | chain 1 Y14E | -0.645 log2 (difference from the parental peptide)
28 | chain 1 Y14Q | 0.652 log2 (difference from the parental peptide)

Row | Variant | enrichment
29 | chain 1 Y5L | -0.265 log2 (difference from the parental peptide)
30 | chain 1 Y5C | -7.1 log2 (difference from the parental peptide)
31 | chain 1 Y5M | -0.636 log2 (difference from the parental peptide)
32 | chain 1 Y5S | -5.16 log2 (difference from the parental peptide)
33 | chain 1 Y5G | -5.04 log2 (difference from the parental peptide)
34 | chain 1 Y5H | -5.84 log2 (difference from the parental peptide)
35 | chain 1 Y5A | -6.59 log2 (difference from the parental peptide)
36 | chain 1 Y8A | -1.36 log2 (difference from the parental peptide)
37 | chain 1 Y8N | -4.48 log2 (difference from the parental peptide)
38 | chain 1 Y8W | 0.61 log2 (difference from the parental peptide)
39 | chain 1 Y8D | -7.06 log2 (difference from the parental peptide)
40 | chain 1 Y8S | -4.18 log2 (difference from the parental peptide)
41 | chain 1 Y8H | -4.28 log2 (difference from the parental peptide)
42 | chain 1 Y8F | 1.24 log2 (difference from the parental peptide)
43 | chain 1 T12A | -0.122 log2 (difference from the parental peptide)
44 | chain 1 T12G | -3.67 log2 (difference from the parental peptide)
45 | chain 1 T12P | -0.165 log2 (difference from the parental peptide)
46 | chain 1 T12M | -0.433 log2 (difference from the parental peptide)
47 | chain 1 T12D | -1.11 log2 (difference from the parental peptide)
48 | chain 1 T12H | -0.0146 log2 (difference from the parental peptide)
49 | chain 1 T12I | -0.26 log2 (difference from the parental peptide)
50 | chain 1 T12F | -1.18 log2 (difference from the parental peptide)
51 | chain 1 T6Q | 1.13 log2 (difference from the parental peptide)
52 | chain 1 T6I | -5.53 log2 (difference from the parental peptide)
53 | chain 1 T6P | -1.36 log2 (difference from the parental peptide)

Row | Variant | enrichment
54 | chain 1 T6A | 1.59 log2 (difference from the parental peptide)
55 | chain 1 T6C | -9.06 log2 (difference from the parental peptide)
56 | chain 1 T6M | -0.0579 log2 (difference from the parental peptide)
57 | chain 1 T6V | -3.12 log2 (difference from the parental peptide)
58 | chain 1 T6N | 0.795 log2 (difference from the parental peptide)
59 | chain 1 T6S | 2.06 log2 (difference from the parental peptide)
60 | chain 1 T16W | -0.46 log2 (difference from the parental peptide)
61 | chain 1 T16V | 0.537 log2 (difference from the parental peptide)
62 | chain 1 T16N | 0.543 log2 (difference from the parental peptide)
63 | chain 1 T16Y | -0.142 log2 (difference from the parental peptide)
64 | chain 1 T16C | -2.39 log2 (difference from the parental peptide)
65 | chain 1 T16G | 1.07 log2 (difference from the parental peptide)
66 | chain 1 T16K | 1.41 log2 (difference from the parental peptide)
67 | chain 1 D3Q | -2.92 log2 (difference from the parental peptide)
68 | chain 1 D3Y | -2.62 log2 (difference from the parental peptide)
69 | chain 1 D3P | -2.64 log2 (difference from the parental peptide)
70 | chain 1 D3L | -2.94 log2 (difference from the parental peptide)
71 | chain 1 D3A | -1.64 log2 (difference from the parental peptide)
72 | chain 1 D3C | -7.83 log2 (difference from the parental peptide)
73 | chain 1 D3F | -2.94 log2 (difference from the parental peptide)
74 | chain 1 D3M | -3.45 log2 (difference from the parental peptide)
75 | chain 1 D3I | -3.47 log2 (difference from the parental peptide)
76 | chain 1 D3G | -2.58 log2 (difference from the parental peptide)
77 | chain 1 D3W | -2.86 log2 (difference from the parental peptide)
78 | chain 1 D3N | -1.8 log2 (difference from the parental peptide)

Row | Variant | enrichment
79 | chain 1 D3V | -3.08 log2 (difference from the parental peptide)
80 | chain 1 E2A | -1.44 log2 (difference from the parental peptide)
81 | chain 1 E2L | -1.7 log2 (difference from the parental peptide)
82 | chain 1 E2P | -2.32 log2 (difference from the parental peptide)
83 | chain 1 E2T | -1.89 log2 (difference from the parental peptide)
84 | chain 1 E2V | -1.43 log2 (difference from the parental peptide)
85 | chain 1 E2D | 1.04 log2 (difference from the parental peptide)
86 | chain 1 E2M | -2.24 log2 (difference from the parental peptide)
87 | chain 1 E2H | -2.03 log2 (difference from the parental peptide)
88 | chain 1 E2S | -1.97 log2 (difference from the parental peptide)
89 | chain 1 P10D | -7.93 log2 (difference from the parental peptide)
90 | chain 1 P10G | -9.74 log2 (difference from the parental peptide)
91 | chain 1 P10Y | -6.5 log2 (difference from the parental peptide)
92 | chain 1 P10A | -8.23 log2 (difference from the parental peptide)
93 | chain 1 P10R | -7.6 log2 (difference from the parental peptide)
94 | chain 1 P10L | -8.02 log2 (difference from the parental peptide)
95 | chain 1 P10Q | -5.91 log2 (difference from the parental peptide)
96 | chain 1 P10C | -8.24 log2 (difference from the parental peptide)
97 | chain 1 L11E | 0.712 log2 (difference from the parental peptide)
98 | chain 1 L11H | 1.86 log2 (difference from the parental peptide)
99 | chain 1 L11F | -0.0302 log2 (difference from the parental peptide)
100 | chain 1 L11S | 1.65 log2 (difference from the parental peptide)
101 | chain 1 L11G | -1.12 log2 (difference from the parental peptide)
102 | chain 1 L11M | 2.26 log2 (difference from the parental peptide)
103 | chain 1 L11N | 0.274 log2 (difference from the parental peptide)

Row | Variant | enrichment
104 | chain 1 L11W | -0.601 log2 (difference from the parental peptide)
105 | chain 1 F15N | 1.4 log2 (difference from the parental peptide)
106 | chain 1 F15H | 2.19 log2 (difference from the parental peptide)
107 | chain 1 F15W | 0.273 log2 (difference from the parental peptide)
108 | chain 1 F15P | 2.45 log2 (difference from the parental peptide)
109 | chain 1 F15V | 2.21 log2 (difference from the parental peptide)
110 | chain 1 F15C | 0.0192 log2 (difference from the parental peptide)
111 | chain 1 F15Y | 1.8 log2 (difference from the parental peptide)
112 | chain 1 F15S | 1.91 log2 (difference from the parental peptide)
113 | chain 1 A9L | -3.92 log2 (difference from the parental peptide)
114 | chain 1 A9I | -5.81 log2 (difference from the parental peptide)
115 | chain 1 A9W | -5.37 log2 (difference from the parental peptide)
116 | chain 1 A9E | 1.36 log2 (difference from the parental peptide)
117 | chain 1 A9R | -0.86 log2 (difference from the parental peptide)
118 | chain 1 A9H | -2.52 log2 (difference from the parental peptide)
119 | chain 1 A9N | -3.86 log2 (difference from the parental peptide)
120 | chain 1 A9F | -4.42 log2 (difference from the parental peptide)
121 | chain 1 A9D | -7.75 log2 (difference from the parental peptide)
122 | chain 1 E1A | -0.674 log2 (difference from the parental peptide)
123 | chain 1 E1G | -0.383 log2 (difference from the parental peptide)
124 | chain 1 E1R | -2.91 log2 (difference from the parental peptide)
125 | chain 1 E1Y | -0.879 log2 (difference from the parental peptide)
126 | chain 1 E1P | -0.418 log2 (difference from the parental peptide)
127 | chain 1 E1Q | -0.418 log2 (difference from the parental peptide)
128 | chain 1 E1L | -1.2 log2 (difference from the parental peptide)

Row | Variant | enrichment
129 | chain 1 E1D | 1.88 log2 (difference from the parental peptide)
130 | chain 1 E1C | -8.27 log2 (difference from the parental peptide)
131 | chain 1 E1V | -0.973 log2 (difference from the parental peptide)
132 | chain 1 C13Q | -1.97 log2 (difference from the parental peptide)
133 | chain 1 C13N | -3.72 log2 (difference from the parental peptide)
134 | chain 1 C13V | 0.0797 log2 (difference from the parental peptide)
135 | chain 1 C13W | -1.28 log2 (difference from the parental peptide)
136 | chain 1 C13H | -2.17 log2 (difference from the parental peptide)
137 | chain 1 C13R | -3.1 log2 (difference from the parental peptide)
138 | chain 1 C13S | -1.77 log2 (difference from the parental peptide)
139 | chain 1 C13D | -4.59 log2 (difference from the parental peptide)
140 | chain 1 C13M | -0.513 log2 (difference from the parental peptide)
141 | chain 1 C13T | -0.813 log2 (difference from the parental peptide)
142 | chain 1 C13K | -4.94 log2 (difference from the parental peptide)
143 | chain 1 A7E | 2.43 log2 (difference from the parental peptide)
144 | chain 1 A7S | 0.947 log2 (difference from the parental peptide)
145 | chain 1 A7P | 0.181 log2 (difference from the parental peptide)
146 | chain 1 A7D | 2.55 log2 (difference from the parental peptide)
147 | chain 1 A7K | 0.582 log2 (difference from the parental peptide)
148 | chain 1 A7I | 0.0548 log2 (difference from the parental peptide)
149 | chain 1 A7V | -0.376 log2 (difference from the parental peptide)
150 | chain 1 A7M | 1.51 log2 (difference from the parental peptide)
